Laboratory results published in publication doi:10.1101/2025.02.05.636725, “DHRS7 Integrates NADP^+/NADPH Redox Sensing with Inflammatory Lipid Signalling via the Oxoeicosanoid Pathway” (bioRxiv, 2025).

Tests used:
[1] = substrate: CCCCC/C=C\C/C=C\C/C=C\C=C\[C@@H](O)CCCC(=O)O; assay: cells, lysate or membranes; settings: microsomes of overexpressing HEK293T DHRS7-KO cells, NADP+ in excess, pH 7.5, 37 °C, apparent (pseudo-first order), eGFP fusion
[2] = substrate: NC(=O)c1ccc[n+]([C@@H]2O[C@H](COP(=O)(O)OP(=O)(O)OC[C@H]3O[C@@H](n4cnc5c(N)ncnc54)[C@H](OP(=O)(O)O)[C@@H]3O)[C@@H](O)[C@H]2O)c1; assay: NADPH fluorescence, plate reader, Michaelis-Menten fit of initial velocities; assay type: cell-based, Danio rerio; settings: microsomes of overexpressing HEK293T DHRS7-KO cells, 5(S)-HETE in excess, pH 7.5, 37 °C, apparent (pseudo-first order), eGFP fusion, varied: cofactor
[3] = substrate: NC(=O)c1ccc[n+]([C@@H]2O[C@H](COP(=O)(O)OP(=O)(O)OC[C@H]3O[C@@H](n4cnc5c(N)ncnc54)[C@H](OP(=O)(O)O)[C@@H]3O)[C@@H](O)[C@H]2O)c1; assay: as above; assay type: cell-based, Homo sapiens; settings: microsomes of overexpressing HEK293T DHRS7-KO cells, 5(S)-HETE in excess, pH 7.5, 37 °C, apparent (pseudo-first order), eGFP fusion, varied: cofactor

Protein	Km [1]	Km [2]	Km [3]
dr Dhrs7 (Danio rerio) (protein, Dhrs7-eGFP fusion (pSBtet-eGFP vector, doxycycline-induced) in microsomes of human HEK293T DHRS7-knockout cells) MDICWLCVGLAGTAVYLLVQFIRFIFADADLTLLWAARFGKTPESTFRGKVVWITGASSGIGEELSLQLAAIGARLVLSARRENELERVKRLCLERSSLKAEDILVLPLDLMDRASHPEKTTAALEHFGEIDVLINNGGRSQRALCVDADVDVYQALMELNYLGTVSITKQVLPHMIQRGTGIIATVSSVAGFVGVPLATGYAASKHALQGFFNSLRTELSDCPNILISNICPGPVISSIVQNAFTEELGKPVATAGDQTHKMSTERCVHLTLVGLANRVKEMWIAEQPFLLFCYVWQYTPTLAWYLTNVLGKKRVQNFKAGVDADAAYFSKPKAKTS	1.4 (95% CI: [1.1, 1.7]) μM	0.63 (95% CI: [0.24, 1.03]) μM	
hs DHRS7 (Homo sapiens) (protein, DHRS7-eGFP fusion (pSBtet-eGFP vector, doxycycline-induced) in microsomes of HEK293T DHRS7-knockout cells) MNWELLLWLLVLCALLLLLVQLLRFLRADGDLTLLWAEWQGRRPEWELTDMVVWVTGASSGIGEELAYQLSKLGVSLVLSARRVHELERVKRRCLENGNLKEKDILVLPLDLTDTGSHEAATKAVLQEFGRIDILVNNGGMSQRSLCMDTSLDVYRKLIELNYLGTVSLTKCVLPHMIERKQGKIVTVNSILGIISVPLSIGYCASKHALRGFFNGLRTELATYPGIIVSNICPGPVQSNIVENSLAGEVTKTIGNNGDQSHKMTTSRCVRLMLISMANDLKEVWISEQPFLLVTYLWQYMPTWAWWITNKMGKKRIENFKSGVDADSSYFKIFKTKHD	0.78 (95% CI: [0.43, 1.13]) μM		0.62 (95% CI: [0.39, 0.97]) μM
